Target: Chicken CapZ (full length α/β) (chicken, UniProt P13127 1-286; P14315 1-277)
Assay: ITC

B1: RavB^108-148 synthetic peptide (peptide)
chain: SKREETKLTHFVRERAQGPRGRRLPAHLQAKIKRVSLDKPH
Kd: 170 nM

From PMC12865202 (2026)
